Here are results for one protein from patent US20050008648A1 (BOARD OF TRUSTEES OF THE UNIVERSITY OF ILLINOIS, published 2005).

The series deals with the molecule itself. Kind of series: X-ray crystal structure.

Description: Crystals were transferred to a cryoprotectant solution that in the case of the citrate condition was made of mineral oil (Sigma) while for the crystals grown in PEG it was composed of the mother liquor and 10% (w/v) xylitol-10% (w/v) sucrose. Once the crystals were mounted in loops, they were frozen by directly immersing them in liquid nitrogen. X-ray data were collected at the Advanced Photon Source using the BioCARS beamlines BM-C and BM-D, and the SERCAT beamline ID-22.
Data for the MAD data set were collected to 2.3 Å resolution. A partially built model into the MAD electron density was used to solve the tetragonal crystals. […] The ligands were refined without conformational torsion-angle restraints in order to prevent bias towards a particular ring conformation for the sugars.

B1: Human deoxycytidine kinase (dCK) (enzyme)
chain: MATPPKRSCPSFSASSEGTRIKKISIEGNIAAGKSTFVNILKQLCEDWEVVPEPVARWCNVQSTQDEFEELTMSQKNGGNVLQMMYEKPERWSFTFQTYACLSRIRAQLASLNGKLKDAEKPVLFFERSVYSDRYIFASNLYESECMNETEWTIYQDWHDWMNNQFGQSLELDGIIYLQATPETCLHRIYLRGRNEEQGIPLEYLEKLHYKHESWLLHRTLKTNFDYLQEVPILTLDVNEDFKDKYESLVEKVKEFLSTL
notes: Made in E. coli with a His-tag that was cleaved by thrombin; The selenomethionine-substituted protein was used for MAD phasing; Residues 1 to 19 were not seen in the electron density; Crystallized with dC, ara-C or gemcitabine and ADP; also called human dCK; wild type dCK
As to B1, the binding result was “binds”.
